The values that follow come from patent US8620595B2, “Methods for determining the retention of peptides in reverse phase chromatography using linear solvent strength theory” (University of Manitoba, priority 2010, dated 2013).

A short description of the first data set: Isocratic elution measurement of slope S (log k vs. φ plots), RP-HPLC with UV detection. Format: physicochemical. The conditions noted are these: Luna C18(2) column, water/acetonitrile with 0.1% formic acid, 22-23° C. How it is done:
Chromatography. All chromatographic experiments were conducted at a controlled temperature of 22-23° C. For isocratic measurement of the slope values, a micro-Agilent 1100 Series system (Agilent Technologies, Wilmington, Del.), was used with a 1 mm×100 mm 5 μm Luna C18(2) (Phenomenex, Torrance, Calif.) column and a UV detector operated at 214 nm. Both eluents A (water) and B (acetonitrile) contained 0.1% formic acid as ion-pairing modifier. Stock solutions of the 11 standard peptides (˜1 mg/ml) were prepared by dissolving each peptide in 1 ml of 0.1% FA in water or a 20% acetonitrile solution. Ten microliters of sample was injected. Individual peptides were diluted to provide ˜0.5-1 μg injection of each component using a 10 μl loop. The dead volume of the column and connecting tubings was determined by injecting a non-retained compound (water) and measuring the elution time of the negative peak at a 150 μL/min flow rate. Retention factors for isocratic elution were calculated using the formula: k=(tR−t0)/t0c; where tR is the retention time, t0 is the system (column and tubings) dead time, and t0c is the column dead time. Additional details of measuring S-values via constructing log k vs. φ plots are provided elsewhere.^24 The nano-LC MS/MS experiments were conducted using splitless Tempo LC system (Eksigent, Dublin, Calif.) with 20 μL sample injection via a 300 μm×5 mm PepMap100 (Dionex, Sunnyvale, Calif.) trap-column and a 100 μm×200 mm analytical column packed with 5 μm Luna C18(2) (Phenomenex, Torrance, Calif.). Tryptic digests of the mixtures were spiked with calibrating peptides (see Table 1) as described above, injected on the trap-column using buffer A as a carrier and separated using 0.1875, 0.375 and 0.75 percent acetonitrile per minute linear gradients starting from 0.5% acetonitrile at 500 nL/min flow rate. The composition of both eluents A and B was identical to one described above for normal-flow system. Gradient programs consisted of a 0.5-40% linear increase of buffer B in 213.2, 106.6 and 53.3 minutes, respectively. After each run the gradient columns were washed with 80% B for 3 minutes and equilibrated with the starting A:B ratio for 18 minutes.
Accordingly, for the determination of S-values of the set of synthetic peptides we used an isocratic elution procedure, despite it being extremely labor intense.^23 Isocratic measurements consist of determining retention times of peptides at several constant acetonitrile concentrations and plotting experimental Eqn. 1 for each peptide.
These two ways of measurement have been combined to provide a highly accurate and fast way of determining S for an extensive sets of peptides (see FIG. 3). First, precise isocratic measurement of S is performed in normal flow conditions with UV detection for a set of synthetic “S-calibrating” peptides. Similar to the previously described peptide mixture P1-P6 designed to cover wide range of hydrophobicities, these peptides were chosen to cover wide range of S-values (Table 1). Second—a tryptic digest of the bovine proteins mixture (model mixture) is spiked with the “S-calibrating” peptides and run under two different gradient slopes in nano-flow RP-HPLC MS: 0.75 and 0.1875% acetonitrile per minute in our case. Third—retention times are assigned for all identified species. Fourth—retention time shifts in acetonitrile percentage (ACN %) units relative to P3 were determined as: Δ=(tR 0.75−tRP3 0.75)*0.75−(tR 0.1875−tRP3 0.1875)*0.1875 (3); where tR 0.75 and tRP3 0.75 are the retention times of any peptide and reference P3 at 0.75% per minute, and tR 0.1875 and tRP3 0.1875 are the retention times of any peptide and reference P3 at 0.1875% acetonitrile per minute gradient, respectively. Fifth—an experimental Δ vs. S curve was plotted for S-calibrating peptides (FIG. 3). Sixth—S values were extracted from this dependence for all peptides observed in both nano-RP-HPLC MS runs by extrapolation of experimental Δ on this plot.
In the case of “LLSLADFG [Peptide 8, synthetic S-calibrating peptide]”, the “Slope (S in the basic LSS equation)” value is 19.2. Still for that read-out and setting: the same measure for “LASAAHFR [Peptide 7, synthetic S-calibrating peptide]”: 35.59.

As to “LLLLDFR [Peptide 4, synthetic S-calibrating peptide]”, the “Slope (S in the basic LSS equation)” value worked out at 21.78. As for “LASAADFR [Peptide 6, synthetic S-calibrating peptide]”, the “Slope (S in the basic LSS equation)” value is given as 27.07.

Regarding “LAGGGSASSSAHAAAFR [Peptide 11, synthetic S-calibrating peptide]”, the “Slope (S in the basic LSS equation)” value was found to be 44.66. Same read-out and setting: to LLGGGGDFR [Peptide 2] belongs 24.76.

Turning to “LAGGGSASSSADAAAFR [Peptide 9, synthetic S-calibrating peptide]”, the “Slope (S in the basic LSS equation)” value was 34.8. On the same count and under the same terms, the same measure for “LLLLLDFR [Peptide 5, synthetic S-calibrating peptide]”: 22.76. On to “LLGGSLSSLHAAFR [Peptide 10, synthetic S-calibrating peptide]”, for which the “Slope (S in the basic LSS equation)” value was determined as 33.81.

Still in this data set, the particulars now being: Luna C18(2) column, water/acetonitrile with 0.1% formic acid, 22-23° C., listed as P3.
Regarding LLGGGGDFR [Peptide 2], the “Slope (S in the basic LSS equation)” value is 24.76.
